Source: US10633429B2, “Human antibody κ type light chain complex-containing composition and method for producing same” (JAPAN SCIENCE AND TECHNOLOGY AGENCY, priority 2013, dated 2020)
Where a chain is given by its changes, count along the chain named.

B1: #7VL: mutant of light chain #7, full-length SEQ ID NO. 4; tested bound with copper ions (protein)
light: EIVMTQSPLSLPVTPGEPASISCRSSQSLLHSNTRNYLDWYLQKPGQSPQLLIYLGSNRASGVPDRFSGSGSGTDFTLKISRVEAEDVGVYYCMQGLQTPRTFGQGTKVEIKRTVAAPSVFIFPPSDEQLKSGTASVVCLLNNFYPREAKVQWKVDNALQSGNSQESVTEQDSKDSTYSLSSTLTLSKADYEKHKLYACEVTHQGLSSPVTKSFNRGEC
modifications: bound copper ions; human; Human antibody kappa light chain (#7 VL)
B2: #7RL I: mutant of light chain #7, full-length SEQ ID NO. 10; tested bound with copper ions (protein)
light: B1 light with R101I, K108R, V109L
modifications: bound copper ions; human; Human antibody kappa light chain (#7 RLI)
B3: #7VL(RL): mutant of light chain #7, full-length SEQ ID NO. 8; tested bound with copper ions (protein)
light: B1 light with K108R, V109L
modifications: bound copper ions; human; Human antibody kappa light chain (#7 VL(RL))
B4: #7VL(I): mutant of light chain #7, full-length SEQ ID NO. 6; tested bound with copper ions (protein)
light: B1 light with R101I
modifications: bound copper ions; human; Human antibody kappa light chain (#7 VL(I))
B5: #4: human antibody κ type light chain, SEQ ID NO. 12; tested bound with copper ions (protein)
light: DVVMTQTPLSLSVTPGEPASISCRSTQSLLDSDGVNPSFDWYVQKPGQSPQLLIHRGFYRASGVPDRFSGSGSGTDFTLRISRVEAEDVGVYYCMQRIEFPLTFGGGTKVELKRTVAAPSVFIFPPSDEQLKSGTASVVCLLNNFYPREAKVQWKVDNALQSGNSQESVTEQDSKDSTYSLSSTLTLSKADYEKHKLYACEVTHQGLSSPVTKSFNRGEC
modifications: bound copper ions; human; Human antibody kappa light chain (#4)
B6: #11: human antibody κ type light chain, SEQ ID NO. 14; tested bound with copper ions (protein)
light: DIVMTQTPLSLSVTPGQPASISCKSSQSLLHSDGKTYLYWYLQKPGQSPQLLLYEVSSRFSGVPDRFSGSGSGTDFTLKISRVEAEDVGVYYCMQGIHLPYTFGQGTKLEIKRTVAAPSVFIFPPSDEQLKSGTASVVCLLNNFYPREAKVQWKVDNALQSGNSQESVTEQDSKDSTYSLSSTLTLSKADYEKHKLYACEVTHQGLSSPVTKSFNRGEC
modifications: bound copper ions; human; Human antibody kappa light chain (#11)

Assays:
[1] = system: ES-2 cell line (human ovarian cancer cell line); assay: Cytotoxicity assay (WST assay), ES-2 cell line; format: cell-based; settings: Example 6, 24 h, light chain not bound with copper ions set to 100%
Protocol: (§1) The cytotoxicity of each complex-containing composition to cancer cells was tested using cancer cell lines. As the cancer cell lines, A549 cell line (human alveolar epithelial cancer cell line), ES-2 cell line (human ovarian cancer cell line), MOLT-4 cell line (human acute lymphoblastic leukemia T cell line), BxPC-3 cell line (human pancreatic adenocarcinoma cell line), SNU-1 cell line (human metastatic gastric cancer cell line), and PANC-1 cell line (human pancreatic cancer cell line) were used.
(§2) All of these cell lines were purchased from ATCC (American Type Culture Collection). Here, the A549 cell line was cultured using a 10% FCS (fetal calf serum)-containing F-12K culture medium by a general method, the ES-2 cell line was cultured using a 10% FCS-containing McCoy's 5A culture medium by a general method, each of the MOLT-4 cell line, SNU-1 cell line, and BxPC-3 cell line was cultured using a 10% FCS-containing RPMI-1640 culture medium by a general method, the PANC-1 cell line was cultured using a 10% FCS-containing DMEM culture medium by a general method, and the WI-38 cell line was cultured using a 10% FCS-containing EMEM culture medium by a general method.
(§3) First, after being recovered by thawing the frozen cancer cell lines, the recovered cancer cell lines were seeded in a 96-well plate by 100 μL to be 5×10^3 cells/well (the number of seeds was appropriately adjusted by cell species). After culturing was carried out at 37° C. for 24 hours, a culture medium to be added to the 96-well plate was removed by decantation, and then each complex-containing composition prepared at a concentration of about 1 mg/mL was added to each well by 100 μL. After culturing was carried out for 24 hours or 48 hours from the addition of the complex-containing composition (after cells are planted and cultivated for 48 hours or 72 hours), a WST-1 reagent (manufactured by Roche Inc.) was added to each well by 10 μL and incubated for 1, 1.5, and 2 hours to form a formazan dye, and then the absorbance (Abs at 450 nm) of the formazan dye was measured (WST assay). As a control, a human antibody κ type light chain not bound to metal ions or PBS was added instead of the complex-containing composition and cultured for 24 hours or 48 hours, and then WST assay was carried out. Based on the results of the obtained absorbance, the cell survival rate of the well added with the human antibody κ type light chain not bound to metal ions or the well added with the PBS was set to 100%, and the cell survival rate of each well was determined, so as to evaluate the cytotoxicity of the added complex-containing composition.

[2] = system: MOLT-4 cell line (human acute lymphoblastic leukemia T cell line); assay: Cytotoxicity assay (WST assay), MOLT-4 cell line; format: cell-based; settings: Example 6, 24 h, light chain not bound with copper ions set to 100%
Protocol: as §1, §2, §3
Meanwhile, in the case of the MOLT-4 cell line, from the time cells were seeded in the 96-well plate, each complex-containing composition prepared at a concentration of about 1 mg/mL was added to each well by 100 μL and cultured for 24 hours or 48 hours, and then WST assay was carried out.

[3] = system: A549 cell line (human alveolar epithelial cancer cell line); assay: Cytotoxicity assay (WST assay), A549 cell line; format: cell-based; settings: Example 6, 24 h, light chain not bound with copper ions set to 100%
Protocol: as §1, §2, §3

[4] = system: BxPC-3 cell line (human pancreatic adenocarcinoma cell line); assay: Cytotoxicity assay (WST assay), BxPC-3 cell line; format: cell-based; settings: Example 6; copper-bound light chain 40 μM; 24 h; light chain not bound with copper ions set to 100%
Protocol: as §1
(§4) All of these cell lines were purchased from ATCC (American Type Culture Collection). […]
(§5) First, after being recovered by thawing the frozen cancer cell lines, the recovered cancer cell lines were seeded in a 96-well plate by 100 μL to be 5×10^3 cells/well (the number of seeds was appropriately adjusted by cell species). […] After culturing was carried out for 24 hours or 48 hours from the addition of the complex-containing composition (after cells are planted and cultivated for 48 hours or 72 hours), a WST-1 reagent (manufactured by Roche Inc.) was added to each well by 10 μL and incubated for 1, 1.5, and 2 hours to form a formazan dye, and then the absorbance (Abs at 450 nm) of the formazan dye was measured (WST assay). […]

[5] = system: SNU-1 cell line (human metastatic gastric cancer cell line); assay: Cytotoxicity assay (WST assay), SNU-1 cell line; format: cell-based; settings: 24 h, light chain not bound with copper ions set to 100%
Protocol: as §1, §4, §5

[6] = system: B-16 cell line (mouse melanoma-derived cell) subcutaneous tumor; assay: Cytotoxicity assay in tumor-bearing mouse model, B-16 cell line transplanted; format: in vivo; settings: B-16-transplanted mouse; 32.3 μg per mouse injected into subcutaneous tumor, total of 10 times from 4th day; n=2
Protocol: [Cytotoxicity Assay in Tumor-Bearing Mouse Model]
The cytotoxicity of each complex-containing composition to cancer cells in a tumor-bearing mouse model was tested using tumor-bearing mouse models.
First, the ES-2 cell line (human ovarian cancer-derived cell) or the B-16 cell line (mouse melanoma-derived cell) was subcutaneously transplanted into a mouse to a concentration of 2.5×10^6 cells/mouse. The complex-containing composition was administered against tumors subcutaneously established in the mouse from the 4th day after cancer cell transplantation. The administration of the complex-containing composition was carried out by directly injecting the complex-containing composition into a plurality of sites in the subcutaneous tumor from the outside of the mouse body using a syringe. […]
The volume of the subcutaneous tumor over time was measured from the outside of the mouse body, the volume of the subcutaneous tumor at the 1st day after cancer cell transplantation (next day after transplantation) was set to 1, and the relative tumor volume was determined, so as to evaluate the cytotoxicity of the complex-containing composition to cancer cells in the tumor-bearing mouse model. […]

[7] = copper-bound light chain 12.3 μM

Molecule	Relative cell survival rate ([1]; copper-bound light chain 40 μM)	Relative cell survival rate ([2]; copper-bound light chain 40 μM)	Relative cell survival rate ([3]; copper-bound light chain 40 μM)	Relative cell survival rate ([1]; copper-bound light chain 20 μM)	also measured
B1	35.7%	29.4%	45.9%	–	–
B2	–	–	41.9%	–	Relative cell survival rate [4]: 77.6%; Relative cell survival rate ([5]; Example 6, copper-bound light chain 40 μM): 52.2%
B3	49.4%	32.4%	48.0%	–	–
B4	53.7%	58.7%	79.0%	–	–
B5	–	–	–	50.3%	Relative cell survival rate ([2]; copper-bound light chain 4 μM): 69.6%; Relative cell survival rate ([2]; copper-bound light chain 20 μM): 42.3%; Relative cell survival rate ([2]; copper-bound light chain 40.4 μM): 24.3%; Relative cell survival rate ([5]; Example 7, Table 5, copper-bound light chain 39.4 μM): 29.5%; Relative cell survival rate ([3]; copper-bound light chain 25.2 μM): 81.8%; Relative cell survival rate ([3]; copper-bound light chain 34.9 μM): 79.1%; Relative tumor volume at 15 days after transplantation, compared to control group (PBS) [6]: about ⅓
B6	–	–	–	23.8%	Relative cell survival rate [1, 7]: 58.5%; Relative cell survival rate [3, 7]: 73.2%; Relative cell survival rate ([3]; copper-bound light chain 20 μM): 54.5%
